The results in this text go back to article PMC5746248, “Comparative analysis of the end-joining activity of several DNA ligases”.

What all share (assay): fluorescence anisotropy; 10 mM MgCl2, 1 mM ATP; T4 DNA ligase reaction buffer: 50 mM Tris-HCl pH 7.5 (25°C), 1 mM ATP, 10 mM MgCl2; 750 pM-4 nM DNA; anisotropy temperature not stated
(In fluorescence polarisation assays a small probe gives low polarisation when free and higher when bound to something large.)

Data set [1] has as its target T1, hLig3 ZnF (human, UniProt P49916 88-206).
T1 sequence: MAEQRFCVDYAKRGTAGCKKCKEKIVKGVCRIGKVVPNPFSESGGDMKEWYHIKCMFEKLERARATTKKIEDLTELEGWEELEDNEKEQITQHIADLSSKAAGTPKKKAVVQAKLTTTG
The settings on record: protein: recombinant; tags: His10; label: 3'-FAM on one strand; blunt.

Data set [2] addresses T2, Sso7d (Sulfolobus solfataricus, UniProt P39476 2-64).
T2 sequence: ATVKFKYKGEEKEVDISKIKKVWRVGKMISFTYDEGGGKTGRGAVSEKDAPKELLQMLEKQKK
The settings on record: protein: recombinant; tags: N-terminal His6; label: 3'-FAM on one strand; blunt.

Data set [3] deals with T3, hLig3 (human DNA ligase III beta) (human, UniProt P49916-2 88-949).
T3 sequence: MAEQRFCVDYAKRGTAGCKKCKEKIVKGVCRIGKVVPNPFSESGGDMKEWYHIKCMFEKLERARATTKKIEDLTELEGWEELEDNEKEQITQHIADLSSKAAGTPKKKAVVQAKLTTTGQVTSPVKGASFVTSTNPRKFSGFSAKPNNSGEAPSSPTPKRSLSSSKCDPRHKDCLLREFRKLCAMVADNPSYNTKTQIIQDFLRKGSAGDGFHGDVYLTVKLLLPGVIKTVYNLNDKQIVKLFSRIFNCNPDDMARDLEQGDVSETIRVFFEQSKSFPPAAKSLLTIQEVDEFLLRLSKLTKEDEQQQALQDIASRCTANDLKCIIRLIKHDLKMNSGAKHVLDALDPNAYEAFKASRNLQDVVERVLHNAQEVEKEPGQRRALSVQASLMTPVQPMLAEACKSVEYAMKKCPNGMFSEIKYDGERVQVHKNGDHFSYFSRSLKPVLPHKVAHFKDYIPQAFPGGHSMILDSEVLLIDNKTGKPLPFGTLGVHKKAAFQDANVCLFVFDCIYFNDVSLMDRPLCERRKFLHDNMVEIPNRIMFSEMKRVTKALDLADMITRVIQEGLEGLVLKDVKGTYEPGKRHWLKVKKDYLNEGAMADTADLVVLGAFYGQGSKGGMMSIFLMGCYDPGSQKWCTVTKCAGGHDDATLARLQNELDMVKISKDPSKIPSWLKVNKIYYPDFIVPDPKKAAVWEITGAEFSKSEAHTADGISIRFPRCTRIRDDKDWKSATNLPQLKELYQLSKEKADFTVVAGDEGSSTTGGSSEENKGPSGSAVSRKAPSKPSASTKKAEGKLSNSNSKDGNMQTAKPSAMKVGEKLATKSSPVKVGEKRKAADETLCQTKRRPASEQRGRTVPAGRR
The settings on record: protein: recombinant; tags: N-terminal His6; label: 3'-FAM on one strand; blunt.

Data set [4] deals with T4, PBCV1 DNA ligase (Paramecium bursaria chlorella virus 1, UniProt O41026 1-298).
T4 sequence: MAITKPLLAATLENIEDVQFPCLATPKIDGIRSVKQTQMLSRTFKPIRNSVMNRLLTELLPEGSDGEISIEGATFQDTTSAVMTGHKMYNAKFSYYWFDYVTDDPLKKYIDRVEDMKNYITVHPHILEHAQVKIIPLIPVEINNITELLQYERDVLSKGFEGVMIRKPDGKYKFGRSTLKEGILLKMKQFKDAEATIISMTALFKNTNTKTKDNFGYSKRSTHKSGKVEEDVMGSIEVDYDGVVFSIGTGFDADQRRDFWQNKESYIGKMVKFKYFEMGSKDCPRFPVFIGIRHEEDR
The settings on record: protein: recombinant; label: 3'-FAM on one strand; blunt.

Data set [5] deals with PBCV1-Nterm-T4NTD (bacteriophage T4 (T4NTD) / Paramecium …, UniProt P00970 1-135+O41026:1-298, internal_change). The settings on record: protein: recombinant; tags: N-terminal His6; label: 3'-FAM on one strand; blunt.
For data set [6], the target named is T5, T4 DNA ligase (bacteriophage T4, UniProt P00970 1-487).
T5 sequence: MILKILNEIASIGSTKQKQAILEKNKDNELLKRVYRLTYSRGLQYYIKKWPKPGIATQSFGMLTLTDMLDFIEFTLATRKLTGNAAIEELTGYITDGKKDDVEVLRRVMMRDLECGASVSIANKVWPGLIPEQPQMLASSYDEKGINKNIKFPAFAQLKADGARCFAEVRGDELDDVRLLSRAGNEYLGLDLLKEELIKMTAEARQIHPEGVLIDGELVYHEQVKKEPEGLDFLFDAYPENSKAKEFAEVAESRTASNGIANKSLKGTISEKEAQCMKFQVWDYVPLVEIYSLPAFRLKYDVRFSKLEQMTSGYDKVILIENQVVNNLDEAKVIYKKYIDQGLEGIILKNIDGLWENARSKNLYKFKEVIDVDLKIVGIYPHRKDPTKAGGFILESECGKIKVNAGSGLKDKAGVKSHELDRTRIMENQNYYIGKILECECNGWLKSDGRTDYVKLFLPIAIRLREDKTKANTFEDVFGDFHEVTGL
The settings on record: label: 3'-FAM on one strand; blunt.

Data set [7] concerns the target T6, T3 DNA ligase (bacteriophage T3, UniProt P07717 1-346).
T6 sequence: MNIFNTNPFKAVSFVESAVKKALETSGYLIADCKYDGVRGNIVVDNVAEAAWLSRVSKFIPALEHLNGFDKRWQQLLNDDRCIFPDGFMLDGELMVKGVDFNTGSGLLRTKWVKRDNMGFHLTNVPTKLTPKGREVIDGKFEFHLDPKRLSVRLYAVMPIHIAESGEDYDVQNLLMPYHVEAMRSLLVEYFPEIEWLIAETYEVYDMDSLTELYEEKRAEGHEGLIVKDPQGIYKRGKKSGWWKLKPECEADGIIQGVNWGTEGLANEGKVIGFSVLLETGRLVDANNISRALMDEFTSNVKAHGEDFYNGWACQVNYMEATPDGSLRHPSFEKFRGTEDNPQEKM
The settings on record: label: 3'-FAM on one strand; blunt.

B1: Anisotropy 24mer dsDNA (dsDNA)
DNA 1: GATCGTCCTTGGTGATCATGCATC
DNA 2: GATGCATGATCACCAAGGACGATC
As for B1, the Kd (usually the constant that tells how readily two partners part at equilibrium) stood at 21 ± 1 nM in data set [1]; 430 ± 60 nM in data set [2]; 3.8 ± 0.2 nM in data set [3]; 990 ± 80 nM in data set [4]; 243 ± 39 nM in data set [5]; 1900 ± 100 nM in data set [6]. Besides, binding in data set [7] was put at a Kd of 6.4 ± 0.4 µM.
